Reference: patent US20170037084A1 (UNIVERSITY OF ROCHESTER, published 2017)
Bridges are numbered along the chain shown (N, C = ends). Where no end group is shown, it is not given here. [ ]: non-standard residue; d: D form. The star is where a group is joined. SP8 = 3-amino-N-(3-(aminooxy)propyl)-4-(mercaptomethyl)benzamide, macrocycle-forming linker reagent; mAcF = meta-acetyl-L-phenylalanine, its ketone forms an oxime with the linker; pAcF = para-acetyl-L-phenylalanine, its ketone forms an oxime with the linker; FITC = O=C1OC2(c3ccc(O)cc3Oc3cc(O)ccc32)c2ccc(NC(=S)*)cc21; Trp(6-Cl) = N[C@@H](Cc1c[nH]c2cc(Cl)ccc12)C(=O)O; Phe(4-Ac) = CC(=O)c1ccc(C[C@H](N)C(=O)O)cc1; SP4 = not defined here; SP6 = not defined here; SP9 = not defined here; βAla = NCCC(=O)O

Assays:
[1] = target: T1, HDM2-YFP fusion protein (p53-binding domain of human HDM2, residues 1-109, C-terminally fused to Yellow … (human, UniProt Q00987 1-109)); assay: SPR inhibition assay: inhibitor added to soluble HDM2-YFP, binding to immobilized biotin-SGSG-p53(15-29) is inhibited
T1 construct: range 1-109; Expressed in E. coli BL21(DE3) from pET22-HDM2-YFP-His; also called HMD2; HDM2-YFP-His; not shown: Yellow Fluorescent Protein (YFP); C-terminal His tag
Protocol: (§1) The surface plasmon resonance (SPR)-based inhibition assays were performed using a BIAcore T100 instrument. […] Running buffer and sample buffer contained 10 mM HEPES buffer, pH 7.4 with 150 mM NaCl, 3 mM EDTA and 0.05% v/v Tween 20. […] With increasing concentrations of the inhibitor, binding of HDM2 (or HDMX) to the surface is inhibited, leading to a decrease in biosensor response. HDM2/HDMX plus inhibitor samples were injected at a rate of 30 uL/min over a 2 minute interval by a 2 minute dissociation period and a 10-second regeneration step using 10 mM HCl. Specific binding curves for each concentration of inhibitor were obtained by subtracting the response in the reference surface from the response in the p53-coated surface.

[2] = target: T2, HDMX-YFP fusion protein (p53-binding domain of human HDMX, residues 1-109, C-terminally fused to Yellow … (human, UniProt O15151 1-109)); assay: SPR inhibition assay: inhibitor added to soluble HDMX-YFP, binding to immobilized biotin-SGSG-p53(15-29) is inhibited
T2 construct: range 1-109; Expressed in E. coli BL21(DE3) from pET22-HDMX-YFP-His; also called HMDX; HDM4; not shown: Yellow Fluorescent Protein (YFP); C-terminal His tag
T2 sequence (looked up): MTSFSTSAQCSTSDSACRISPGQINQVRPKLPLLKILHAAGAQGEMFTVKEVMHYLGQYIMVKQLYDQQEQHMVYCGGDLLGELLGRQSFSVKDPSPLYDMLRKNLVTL
Protocol: as §1

[3] = target: T2, HDMX-YFP fusion protein (p53-binding …); assay: SPR inhibition assay, competitor immobilised biotin-p53(15-29); the sentence does not say which homolog
Protocol: as §1

[4] = target: T2, HDMX-YFP fusion protein (p53-binding …); assay: SPR inhibition assay, competitor immobilised biotin-p53(15-29)
Protocol: as §1

[5] = target: T1, HDM2-YFP fusion protein (p53-binding …); assay: fluorescence polarization, fluorescein-labeled compound (25-200 nM) titrated with HDM2 (10 nM to 2 µM)
Protocol: HDM2 binding studies. […] In the assay, 25-200 nM of the fluorescein-labeled compound and HDM2 concentrations varying from 10 nM to 2 μM were tested. The experiments were performed at room temperature in black 96-well plates with a final volume of 75 μL in PBS buffer with addition of 1% DMSO. Fluorescence was detected at excitation/emission of 470/520 nm and change in fluorescence polarization was plotted against the varying protein concentration.

T1 sequence (Q00987 1-109): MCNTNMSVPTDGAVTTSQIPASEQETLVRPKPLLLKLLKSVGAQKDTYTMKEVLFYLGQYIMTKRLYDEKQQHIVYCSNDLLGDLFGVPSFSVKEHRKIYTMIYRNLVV

B1: P18 (peptide)
peptide: Ac-[mAcF]SFAEY[Trp(6-Cl)]ALLA
modifications: linker 1-C via SP9; reading uncertain; also: linker thiol capped with iodoacetamide
notes: also called Ac-(mAcF)SFAEY(6ClW)ALLA, SP9-linked macrocycle
[1]
  IC50: 400 nM

## Ac-G[pAcF]SFAEYWNLLA (linker 2-C via SP8; also: linker thiol capped with iodoacetamide) [P12]
[1]
  IC50: 145 nM

B2: p53 macrocyclic peptidomimetic P3 (i/i+6(CO)-linked, SP6-based linker) (peptide)
peptide: GTSFA[Phe(4-Ac)]YWNLLA
modifications: linker 6-C via SP6; reading uncertain; also: linker thiol capped with iodoacetamide
[2]
  IC50: 4100 nM
[1]
  IC50: 870 nM

B3: p53 macrocyclic peptidomimetic P5 (i/i+6(CO)-linked, distance-mismatched SP4-based linker; negative control) (peptide)
peptide: GTSFA[Phe(4-Ac)]YWNLLA
modifications: linker 6-C via SP4; reading uncertain; also: linker thiol capped with iodoacetamide
notes: also called SP4-based macrocycle P5
[3]
  IC50: ~10000 nM

B4: p53 macrocyclic peptidomimetic P8 (i/i+10(CO)-linked, SP8-based linker) (peptide)
peptide: G[Phe(4-Ac)]SFAEYWNLLA
modifications: bridge 2-C; not fully specified (bridges); also: linker thiol capped with iodoacetamide
[4]
  IC50: 340 nM

B5: P19 (peptide)
peptide: Ac-[pAcF]SFAEY[Trp(6-Cl)]ALLA
modifications: linker 1-C via SP4; reading uncertain; also: linker thiol capped with iodoacetamide
notes: also called Ac-(pAcF)SFAEY(6ClW)ALLA, SP4-linked macrocycle
[1]
  IC50: > 50000 nM

B6: P16 (peptide)
peptide: Ac-[mAcF]SFAEY[Trp(6-Cl)]ALLA
modifications: linker 1-C via SP8; also: linker thiol capped with iodoacetamide
notes: also called Ac-(mAcF)SFAEY(6ClW)ALLA, SP8-linked macrocycle
[1]
  IC50: 105 nM

## {FITC-βAla}-G[pAcF]SFAEYWNLLA (linker 2-C via SP8; also: linker thiol capped with iodoacetamide, also called fluorescein-conjugated P8) [FITC-β-Ala-P8 (fluorescein-labeled derivative of macrocycle P8)]
[5]
  Kd: 63 nM

B7: p53 macrocyclic peptidomimetic P7 (i/i+10(CO)-linked, SP6-based linker) (peptide)
peptide: G[Phe(4-Ac)]SFAEYWNLLA
modifications: linker 2-C via SP6; reading uncertain; also: linker thiol capped with iodoacetamide
[4]
  IC50: 910 nM

## GTSFA[pAcF]YWNLLA (linker 6-C via SP8; also: linker thiol capped with iodoacetamide) [p53 macrocyclic peptidomimetic P4 (i/i+6(CO)-linked, SP8-based linker)]
[2]
  IC50: 3500 nM
[1]
  IC50: 1500 nM

B8: P2 (peptide)
peptide: Ac-GTSFAYYWNLLA-NH2
notes: also called acyclic counterpart of P3 and P4
[2]
  IC50: 7500 nM
[1]
  IC50: 1510 nM

B9: P11 (peptide)
peptide: Ac-[Phe(4-Ac)]SFAEY[Trp(6-Cl)]ALLA-NH2
SMILES: CC(=O)N[C@@H](Cc1ccc(C(C)=O)cc1)C(=O)N[C@@H](CO)C(=O)N[C@@H](Cc1ccccc1)C(=O)N[C@@H](C)C(=O)N[C@@H](CCC(=O)O)C(=O)N[C@@H](Cc1ccc(O)cc1)C(=O)N[C@@H](Cc1c[nH]c2cc(Cl)ccc12)C(=O)N[C@@H](C)C(=O)N[C@@H](CC(C)C)C(=O)N[C@@H](CC(C)C)C(=O)N[C@@H](C)C(N)=O
notes: also called Ac-(pAcF)SFAEY(6ClW)ALLA-NH2
[1]
  IC50: 30 nM

## Ac-[mAcF]SFAEYWNLLA (linker 1-C via SP8; also: linker thiol capped with iodoacetamide) [P14]
[1]
  IC50: 255 nM

## Ac-[pAcF]SFAEYWNLLA (linker 1-C via SP8; also: linker thiol capped with iodoacetamide) [P13]
[1]
  IC50: 135 nM

B10: P17 (peptide)
peptide: Ac-[pAcF]SFAEY[Trp(6-Cl)]ALLA
modifications: linker 1-C via SP9; reading uncertain; also: linker thiol capped with iodoacetamide
notes: also called Ac-(pAcF)SFAEY(6ClW)ALLA, SP9-linked macrocycle
[1]
  IC50: 305 nM
